The numbers were not newly measured in patent publication US20180318303A1, “METHODS FOR TREATING MYELOPROLIFERATIVE DISORDERS” (Promedior, Inc., priority 2015, published 2018), which cites them from elsewhere.

The conditions of the data set: in vivo.

As for “SAP: naturally occurring serum protein in mammals composed of five identical subunits, non-covalently associated in a disk-like complex”, the physiological half-life result is “twenty-four”.
